Patent US20060062783A1 (Amgen, published 2006)
Where a chain is given by its changes, count along the chain named. Each block holds one binder with its values, some of them ahead of it.

Tests used:
Human PTH (1-34) [1] = target: T1, Human PTH (1-34) (human, not fully specified); test: BiaCore, 25° C., 34mer
T1 construct: Synthetic peptide bought from Bachem; also called hPTH (1-34); human 34mer
T1 peptide: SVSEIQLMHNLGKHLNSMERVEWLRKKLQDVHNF

Human PTH (1-34) [2] = target: T1, Human PTH (1-34); test: BiaCore, 37° C., 34mer
Rat PTH (1-84) [3] = target: T2, Rat PTH (1-84) (rat); test: ELISA on coated peptide; B cell supernatant
T2 construct: Synthetic peptide bought from Bachem; also called Rat 84mer
T2 peptide: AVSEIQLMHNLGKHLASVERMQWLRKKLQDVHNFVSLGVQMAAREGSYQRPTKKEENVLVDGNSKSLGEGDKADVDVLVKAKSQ

Human PTH (18-48) = target: T3, Human PTH (18-48) (human); test: ELISA on coated peptide; B cell supernatant
T3 construct: Synthetic peptide bought from Bachem; also called hPTH18-48; 18-48mer
T3 peptide: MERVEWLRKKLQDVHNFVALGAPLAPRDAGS

Human PTH (1-84) [4] = target: T4, Human PTH (1-84) (human); test: ELISA on coated peptide; B cell supernatant
T4 construct: Synthetic peptide bought from Bachem; also called hPTH1-84; Hu 84mer
T4 peptide: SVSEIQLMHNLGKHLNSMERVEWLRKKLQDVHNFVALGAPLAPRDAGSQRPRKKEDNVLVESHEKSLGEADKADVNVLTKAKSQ

Human PTH (1-84) [5] = target: T4, Human PTH (1-84); test: BiaCore, 37° C., 84mer
[6] = target: T5, endogenous human PTH in pooled serum from hemodialysis patients (human, UniProt P01270 32-115, limits assumed); test: immunoassay-based Scatchard analysis in pooled serum of hemodialysis patients
T5 construct: Circulating hormone; may be a mix of intact PTH and fragments
T5 sequence (looked up): T4 peptide

Human PTH (1-34) [7] = target: T1, Human PTH (1-34); test: cell-based or functional assay
[8] = target: T6, PTH 20-28 peptide RVEWLRKKA; test: alanine-scanning peptide array
T6 construct: Alanine variant; the entry already holds the change
T6 peptide: RVEWLRKKA

[9] = target: T7, PTH 20-28 peptide RVEWARKKL; test: alanine-scanning peptide array
T7 construct: Alanine variant; the entry already holds the change
T7 peptide: RVEWARKKL

[10] = target: T8, PTH 20-28 peptide RVEWLRAKL; test: alanine-scanning peptide array
T8 construct: Alanine variant; the entry already holds the change
T8 peptide: RVEWLRAKL

[11] = target: T9, PTH peptide RVEWLRKKL (amino acids 20-28, wild type); test: alanine-scanning peptide array
T9 construct: Peptide on a custom peptide array; also called wild-type peptide
T9 peptide: RVEWLRKKL

[12] = target: T10, PTH 20-28 peptide RVEWLAKKL; test: alanine-scanning peptide array
T10 construct: Alanine variant; the entry already holds the change
T10 peptide: RVEWLAKKL

[13] = target: T11, PTH 20-28 peptide RVEALRKKL; test: alanine-scanning peptide array
T11 construct: Alanine variant; the entry already holds the change
T11 peptide: RVEALRKKL

[14] = target: T12, PTH 20-28 peptide RVEWLRKAL; test: alanine-scanning peptide array
T12 construct: Alanine variant; the entry already holds the change
T12 peptide: RVEWLRKAL

[15] = target: T13, PTH 20-28 peptide RVAWLRKKL; test: alanine-scanning peptide array
T13 construct: Alanine variant; the entry already holds the change
T13 peptide: RVAWLRKKL

[16] = target: T14, PTH 20-28 peptide RAEWLRKKL; test: alanine-scanning peptide array
T14 construct: Alanine variant; the entry already holds the change
T14 peptide: RAEWLRKKL

[17] = target: T15, PTH 20-28 peptide AVEWLRKKL; test: alanine-scanning peptide array
T15 construct: Alanine variant; the entry already holds the change
T15 peptide: AVEWLRKKL

[18] = target: T16, Human PTH-related peptide (1-34) (human); test: indirect: competition ELISA on biotinylated human PTH 1-34
T16 construct: Synthetic peptide bought from Bachem; also called PTH-related protein 1-34; PTHrP
Description: Biotinylated human PTH 1-34 was bound to streptavidin plates at 1 μg/mL for 30 minutes at RT. The plates were washed 5 times with dH2O. […] The titrated antibody was then transferred to the plate coated with human PTH 1-34 and allowed to bind for 1 hour at RT. After washing the plates 5 times with dH2O, 50 μL of Gt anti-Human (Fc)-HRP at 1 μg/mL was added to each well and the plates held 1 hour at RT. After washing the plates 5 times with dH2O, 50 μL of TMB substrate was added to each well. To stop the reaction, 50 μL of 1M phosphoric acid was added to each well. The plates were read at wavelength 450 nm.

Human PTH (7-84) = target: T17, Human PTH (7-84) (human); test: ELISA on coated peptide; B cell supernatant
T17 construct: Synthetic peptide bought from Bachem; also called hPTH7-84; 7-84mer
T17 peptide: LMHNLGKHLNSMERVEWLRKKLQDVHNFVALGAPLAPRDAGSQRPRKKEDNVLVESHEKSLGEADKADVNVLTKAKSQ

Rat PTH (1-84) [19] = target: T2, Rat PTH (1-84); test: KinExA, solution equilibrium, room temperature
Text: (§1) Kinetic analysis. […] This method involves solution-based determination of formal affinity measurements at equilibrium. Dual curve analysis with two known antibody concentrations and unknown antigen concentration was used to determine the KD measurements on human 34mer, human 84mer, cynomolgus 84mer and rat 84mer.

Cynomolgus PTH (1-84) = target: T18, Cynomolgus PTH (1-84) (cynomolgus); test: KinExA, solution equilibrium, room temperature
T18 construct: Synthetic peptide (CS Bio Company for the KinExA measurement and the monkey study); also called cynoPTH (1-84); cynomolgus 84mer
T18 peptide: T4 peptide with V35I, V58I, N76D
Text: as §1

Human PTH (1-34) [20] = target: T1, Human PTH (1-34); test: KinExA, solution equilibrium, room temperature
Text: as §1

Human PTH (1-84) [21] = target: T4, Human PTH (1-84); test: KinExA, solution equilibrium, room temperature
Text: as §1

Human PTH (1-34) [22] = target: T1, Human PTH (1-34); test: cell-based or functional assay

T16 sequence (peptide, as listed by the source): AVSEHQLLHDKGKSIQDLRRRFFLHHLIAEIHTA

Kd (Human PTH (1-34) [1]): 1 nM
Kd (Human PTH (1-34) [2]): 3.5 nM
B1: anti-PTH mAb 011 (antibody, IgG2, V domains shown)
VH: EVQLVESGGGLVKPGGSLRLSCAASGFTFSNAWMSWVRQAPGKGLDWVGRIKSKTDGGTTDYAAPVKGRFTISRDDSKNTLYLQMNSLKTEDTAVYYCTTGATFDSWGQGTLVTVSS
VL: DIVMTQSPLSLPVTPGEPASISCRSSQSLLHSNGYKFLDWFLQKPGQSPQLLIYLGSYRASGVPDRFSGRGSGTDFTLKISRVEAEDVGVYYCMQALQTPWTFGQGTKVEIK
notes: also called AB-PTH-XG2-011; well 133A8

OD (Rat PTH (1-84) [3]): 2.11 OD450
OD (Human PTH (18-48)): 0.25 OD450
OD (Human PTH (1-84) [4]): 1.46 OD450
B2: anti-PTH mAb 262 (antibody, IgG2, V domains shown)
VH: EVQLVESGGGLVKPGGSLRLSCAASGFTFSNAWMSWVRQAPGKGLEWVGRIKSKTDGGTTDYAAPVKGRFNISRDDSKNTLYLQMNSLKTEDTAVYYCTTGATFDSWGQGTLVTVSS
VL: B1 VL with F37Y, Y58I, R70S
notes: also called XG2-262; AB-PTH-XG2-262

Kd (Human PTH (1-34) [1]): 1 nM
Kd (Human PTH (1-34) [2]): 1 nM
B3: anti-PTH mAb 057 (antibody, IgG2, V domains shown)
VH: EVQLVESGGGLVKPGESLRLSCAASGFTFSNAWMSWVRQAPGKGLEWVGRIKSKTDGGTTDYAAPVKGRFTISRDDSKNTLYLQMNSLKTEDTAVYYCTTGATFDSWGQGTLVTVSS
VL: B1 VL with H31Y, F37Y, F41Y, R70S
notes: also called AB-PTH-XG2-057; well 119G2

Kd (Human PTH (1-34) [1]): 0.5 nM
Kd (Human PTH (1-34) [2]): 3.3 nM
B4: anti-PTH mAb 124 (antibody, IgG2, V domains shown)
VH: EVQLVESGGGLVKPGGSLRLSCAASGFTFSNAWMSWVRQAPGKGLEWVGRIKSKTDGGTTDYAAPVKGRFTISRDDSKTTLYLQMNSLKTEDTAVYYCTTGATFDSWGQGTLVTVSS
VL: B1 VL with H31Y, Y35F, F37Y, R70S
notes: also called AB-PTH-XG2-124; well 135H11

Kd (Human PTH (1-34) [1]): 0.35 nM
Kd (Human PTH (1-84) [5]): 7.1 nM
Kd (Human PTH (1-34) [2]): 0.6 nM
B5: anti-PTH mAb 225 (antibody, IgG2, V domains shown)
VH: not shown
VL: EIVMTQSPLNLPVTPGEPASISCRSSQSLLHSNGYKYLEWYLQKPGQSPQLLIYLGSNRASGVPDRFSGSGSGTDFTLKISRVEAEDVGVYYCMQTLQIPLTFGGGTKVEIK
notes: also called well 275A4

Kd (Human PTH (1-34) [1]): 3 nM
Kd (Human PTH (1-84) [5]): 41.1 nM
Kd (Human PTH (1-34) [2]): 7.9 nM
B6: anti-PTH mAb 163 (antibody, IgG2, V domains shown)
VH: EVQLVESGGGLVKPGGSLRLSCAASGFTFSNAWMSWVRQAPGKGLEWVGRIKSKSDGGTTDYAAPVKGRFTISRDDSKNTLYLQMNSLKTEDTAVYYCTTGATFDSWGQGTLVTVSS
VL: B1 VL with S32R, F37Y, F41Y, R70S, F76S
notes: also called AB-PTH-XG2-163; well 130A1

Kd (Human PTH (1-34) [1]): 0.8 nM
Kd (Human PTH (1-34) [2]): 5.2 nM
B7: anti-PTH mAb 140 (antibody, IgG2, V domains shown)
VH: EVQLVESGGGLVKPGGSLTLSCAASGFTFSNAWLSWVRQAPGKGLEWVGRIKSKTDGGTTDYAAPVKGRFTVSRDDSKNTLFLQMNSLKTEDTAVYYCTTGATFDSWGQGTLVTVSS
VL: B1 VL with R70S, K79T
notes: also called AB-PTH-XG2-140; well 132G12

Kd (Human PTH (1-34) [1]): 0.5 nM
Kd (Human PTH (1-34) [2]): 2 nM
B8: anti-PTH mAb 045 (antibody, IgG2, V domains shown)
VH: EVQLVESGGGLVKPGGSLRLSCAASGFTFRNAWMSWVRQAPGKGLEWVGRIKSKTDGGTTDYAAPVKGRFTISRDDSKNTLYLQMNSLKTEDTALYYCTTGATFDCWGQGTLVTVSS
VL: B1 VL with K36N, F37Y, R70S, V90I, L97R
notes: also called AB-PTH-XG2-045; well 123B12

Kd (Human PTH (1-34) [1]): 0.8 nM
Kd (Human PTH (1-84) [5]): 1.6 nM
Kd (Human PTH (1-34) [2]): 0.4 nM
B9: anti-PTH mAb 214 (antibody, IgG2, V domains shown)
VH: EVQLVESGGGLVKPGGSLRLSCAASGSTFSNAWMSWVRQAPGKGLEWVGRIKSRTDGGTADYAAPVKGRFTISRDDLKKTLYLQMNSLKTEDTAVYYCTTYYFDSSGFPFDYWGQGTLVTVSS
VL: B5 VL with E1D, N10Y, I53V, T96A, I99T
notes: also called AB-PTH-XG2-214; well 267D10

Kd (Human PTH (1-34) [1]): 3 nM
Kd (Human PTH (1-34) [2]): 9.5 nM
B10: anti-PTH mAb 026 (antibody, IgG2, V domains shown)
VH: QVQLVESGGGVVQPGRSLRLSCAASGFTFSSYGMHWVRQAPGKGLDWVAVISYDGSNKFYADSVKGRFTISRDNSKNTLYLQMNSLRAEDTAVYYCARDHWELLDYWGQGTLVTVSS
VL: DIVMTQTPLSLSVTPGQPASISCKSSQSLLDSDGKTYLYWYLQRSGQPPQLLIHEVSNRFSGVPYRFIGSGSGTDFTLKISRVEAEDVGAYYCMQGKQFPFIFGPGTKVDIK
notes: also called AB-PTH-XG2-026; well 126B1

Kd [6]: 0.06 nM
IC50 (read off the curve) (Human PTH (1-34) [7]): ~100 nM
binding result [8]: no binding
binding result [9]: no binding
binding result [10]: binds
binding result [11]: binds
binding result [12]: no binding
binding result [13]: binds
binding result [14]: no binding
binding result [15]: no binding
binding result [16]: no binding
binding result [17]: no binding
Kd (Human PTH (1-34) [1]): 0.08 nM
Kd (Human PTH (1-84) [5]): 1 nM
binding result [18]: no binding (tested: 5 µg/mL PTHrp)
Kd (Human PTH (1-34) [2]): 0.1 nM
OD (Rat PTH (1-84) [3]): 0.62 OD450
OD (Human PTH (18-48)): 3.26 OD450
OD (Human PTH (7-84)): 1.95 OD450
OD (Human PTH (1-84) [4]): 1.4 OD450
KD High (Rat PTH (1-84) [19]): 5 nM
KD Low (Rat PTH (1-84) [19]): 2 nM
Kd (Rat PTH (1-84) [19]): 3 nM
KD High (Cynomolgus PTH (1-84)): 0.018 nM
KD Low (Cynomolgus PTH (1-84)): 0.005 nM
Kd (Cynomolgus PTH (1-84)): 0.01 nM
KD High (Human PTH (1-34) [20]): 0.065 nM
KD Low (Human PTH (1-34) [20]): 0.014 nM
Kd (Human PTH (1-34) [20]): 0.033 nM
KD High (Human PTH (1-84) [21]): 0.039 nM
KD Low (Human PTH (1-84) [21]): 0.012 nM
Kd (Human PTH (1-84) [21]): 0.022 nM
IC50 of calcium influx in UMR-106 cells (FLIPR) (Human PTH (1-34) [22]): ~100 nM
B11: anti-PTH mAb 183 (antibody, human IgG2, V domains shown)
VH: EVQLVQSGAEVKKPGESLKISCKGSGYSFTSYWIGWVRQMPGKGLEWMGIISPGDSDTRYSPSFQGQVTISADKSISTAYLQWSSLKASDTAMYYCARQGDYVWGSYDSWGQGTLVTVSS
VL: DIVMTQTPLSLSVTPGRPASISCKSSQSLLDSDGKTYLYWYLQKPGQPPQLLIYEVSNRFSGVPDRFSGSGSGTDFTLRISRVEAEDVGIYFCMPSIHLWTFGQGTKVEIK

Kd (Human PTH (1-34) [1]): 0.28 nM
Kd (Human PTH (1-34) [2]): 0.64 nM
B12: anti-PTH mAb 168g2/183k (antibody, V domains shown)
VH: B11 VH with G26R, S28I, S31N, S52Y, K74M, Y107F
VL: B11 VL

Kd (Human PTH (1-34) [1]): 2.7 nM
Kd (Human PTH (1-34) [2]): 2.6 nM
B13: anti-PTH mAb 168 (antibody, human IgG2, V domains shown)
VH: B11 VH with G26R, S28I, S31N, S52Y, K74M, Y107F
VL: B11 VL with R17Q, R79K, I90V, F92Y, P95Q, H98Q
notes: also called XG2-168; AB-PTH-XG2-168
